Molecular target: Nucleocapsid (N) protein (SARS-CoV-2 original strain, UniProt P0DTC9 1-419)
Test: flow cytometry (bead-immobilized protein); 1x SB
Settings: protein: recombinant; tags: His6 (pET28a); chain copies: 2

B1: N-Apt17 (ssDNA)
DNA: GCTGGATGTTCATGCTGGCAAAAGGTGTCACTCCATTCCTTAGGGGCACCGGAAGCATCTCTTTACTTTGACACATCCAGC
Question: Does B1 bind?
Answer: Result: binds

From PMC10986557, “Inhibition of SARS-CoV-2 replication by a ssDNA aptamer targeting the nucleocapsid protein”
